Assay results: paper PMC7354924, “Repulsive guidance molecules lock growth differentiation factor 5 in an inhibitory complex” (Proceedings of the National Academy of Sciences of the …, 2020)

T1: growth differentiation factor 5 (GDF5), wild type (UniProt P43026 382-501)
T1 construct: GDF5, disulfide-linked dimer; also called wild-type GDF5
T1 sequence (looked up): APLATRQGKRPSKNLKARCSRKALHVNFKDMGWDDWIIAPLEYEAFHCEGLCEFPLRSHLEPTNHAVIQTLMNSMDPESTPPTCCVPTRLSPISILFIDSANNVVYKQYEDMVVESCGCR

T2: growth differentiation factor 5 (GDF5), wild type (human, UniProt P43026 28-501)
T2 construct: GDF5, human, UniProt P43026; Disulfide-linked dimer without glycans; also called BMP14; CDMP1
T2 sequence (looked up): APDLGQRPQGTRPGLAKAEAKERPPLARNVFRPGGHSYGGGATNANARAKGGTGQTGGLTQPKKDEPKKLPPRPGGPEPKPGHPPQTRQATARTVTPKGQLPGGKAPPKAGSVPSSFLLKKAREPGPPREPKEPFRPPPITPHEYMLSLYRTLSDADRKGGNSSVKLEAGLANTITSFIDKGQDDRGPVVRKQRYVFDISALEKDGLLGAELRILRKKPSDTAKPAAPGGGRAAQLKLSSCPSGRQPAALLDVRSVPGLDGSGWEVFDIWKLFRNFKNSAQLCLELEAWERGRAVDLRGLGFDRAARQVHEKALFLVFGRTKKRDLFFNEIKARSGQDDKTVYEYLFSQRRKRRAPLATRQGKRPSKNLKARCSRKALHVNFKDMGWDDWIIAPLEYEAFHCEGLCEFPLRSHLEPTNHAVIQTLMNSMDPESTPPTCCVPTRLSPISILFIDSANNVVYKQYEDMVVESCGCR

T3: GDF5 variant Tyr487Lys/Gln489Asp (UniProt P43026 28-501, Tyr487Lys | Gln489Asp)
T3 construct: GDF5 with Tyr487Lys and Gln489Asp
T3 sequence (looked up): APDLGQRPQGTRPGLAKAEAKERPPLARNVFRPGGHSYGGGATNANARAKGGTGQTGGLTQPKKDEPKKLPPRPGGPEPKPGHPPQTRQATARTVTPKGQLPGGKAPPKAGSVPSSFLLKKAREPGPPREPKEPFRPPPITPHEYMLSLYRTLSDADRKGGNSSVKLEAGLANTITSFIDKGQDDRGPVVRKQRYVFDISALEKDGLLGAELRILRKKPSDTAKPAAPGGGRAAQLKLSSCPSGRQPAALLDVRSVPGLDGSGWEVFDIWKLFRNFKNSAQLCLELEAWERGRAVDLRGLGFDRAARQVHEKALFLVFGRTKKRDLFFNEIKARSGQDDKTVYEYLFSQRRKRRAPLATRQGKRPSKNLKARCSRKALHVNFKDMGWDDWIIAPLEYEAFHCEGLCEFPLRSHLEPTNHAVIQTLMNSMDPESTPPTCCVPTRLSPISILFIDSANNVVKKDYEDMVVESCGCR


What was measured:
[1] = biological target: T1, growth differentiation factor 5 (GDF5), …; experiment: SPR; Biacore T200, 25 °C; GDF5 and BMP2 covalently linked to a CM5 chip by primary amine coupling, RGMs as analytes; 0.5 M NaCl, 20 mM Hepes pH 7.4, 0.05% Tween 20; equilibrium binding, 1:1 Langmuir isotherm; apparent affinity; details: both partners purified
[2] = biological target: T2, growth differentiation factor 5 (GDF5), …; experiment: SPR; Biacore T200, 25 °C; GDF5 amine-coupled to a CM5 chip (830, 970 or 1370 RU); RGMBND variants or BSA as analytes; 0.5 M NaCl, 20 mM HEPES pH 7.4, 0.05% (v/v) Tween 20; Kd from the dose-dependency of equilibrium binding, 1:1 Langmuir isotherm; details: both partners purified
[3] = biological target: T3, GDF5 variant Tyr487Lys/Gln489Asp; experiment: SEC-MALS; RGMBND–GDF5(Tyr487Lys/Gln489Asp)–ActR2bECD complex, 1 mg/mL, Superdex 200 HR 10/30, 0.5 M NaCl, 20 mM Hepes pH 7.4, 21 °C; details: both partners purified
[4] = biological target: T1, growth differentiation factor 5 (GDF5), …; experiment: SEC-MALS; RGMBND–GDF5 complex, 1 mg/mL, Superdex 200 HR 10/30, 0.5 M NaCl, 20 mM Hepes pH 7.5, 21 °C; details: both partners purified
[5] = biological target: T4, bone morphogenetic protein 2 (BMP2) (UniProt P12643 283-396); experiment: SPR; Biacore T200, 25 °C; GDF5 and BMP2 covalently linked to a CM5 chip by primary amine coupling, RGMs as analytes; 0.5 M NaCl, 20 mM Hepes pH 7.4, 0.05% Tween 20; equilibrium binding, 1:1 Langmuir isotherm; apparent affinity; details: both partners purified
T4 construct: BMP2, dimeric ligand
T4 sequence (P12643 283-396): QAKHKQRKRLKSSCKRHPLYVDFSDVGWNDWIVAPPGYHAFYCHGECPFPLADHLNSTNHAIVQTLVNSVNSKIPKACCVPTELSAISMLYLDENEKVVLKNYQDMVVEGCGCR

[6] = biological target: T1, growth differentiation factor 5 (GDF5), …; experiment: cell-based or functional assay
[7] = biological target: T4, bone morphogenetic protein 2 (BMP2); experiment: cell-based or functional assay

Row | Binder | Kd [1] [µM] | Kd [2] [µM] | also measured
1 | N-terminal domain of human RGMC (RGMCND, Gln36–Pro145) (domain or fragment, Asn-linked glycans cut down to one N-acetylglucosamine for crystallization; kept fully glycosylated for binding assays, Glu-Thr-Gly from the pHLsec vector, after the N-terminal secretion signal; human RGMC (Hemojuvelin), N-terminal domain, residues Gln36–Pro145 of UniProtKB Q6ZVN8-1; also called Hemojuvelin; HFE2; source: HEK-293T, transient transfection, secreted, purified (IMAC, SEC)) ETGQCKILRCNAEYVSSTLSLRGGGSSGALRGGGGGGRGGGVGSGGLCRALRSYALCTRRTARTCRGDLAFHSAVHGIEDLMIQHNCSRQGPTAPPPPRGPALPGAGSGLPAP | 3.9 | – | –
2 | RGMCND Gly99Arg (domain or fragment, human, Glu-Thr-Gly from the pHLsec vector, after the N-terminal secretion signal; human RGMC, N-terminal domain, residues Gln36–Pro145 of UniProtKB Q6ZVN8-1, with Gly99Arg; Made by site-directed mutagenesis of the RGMCND construct; also called RGMC Gly99Arg; juvenile hemochromatosis-causing mutation; source: HEK-293T, transient transfection, secreted, purified (IMAC, SEC in SPR running buffer)) ETGQCKILRCNAEYVSSTLSLRGGGSSGALRGGGGGGRGGGVGSGGLCRALRSYALCTRRTARTCRRDLAFHSAVHGIEDLMIQHNCSRQGPTAPPPPRGPALPGAGSGLPAP | > 20 | – | –
3 | N-terminal domain of human RGMB (RGMBND, Gln53-His136) (domain or fragment) ETGQCRIQKCTTDFVSLTSHLNSAVDGFDSEFCKALRAYAGCTQRTSKACRGNLVYHSAVLGISDLMSQRNCSKDGPTSSTNPEVTHGTKHHHHHH | – | 1.8 | –
4 | RGMBND His106Leu (domain or fragment) ETGQCRIQKCTTDFVSLTSHLNSAVDGFDSEFCKALRAYAGCTQRTSKACRGNLVYLSAVLGISDLMSQRNCSKDGPTSSTNPEVTHGTKHHHHHH | – | > 200 | –
5 | RGMBND His106Asn (domain or fragment) ETGQCRIQKCTTDFVSLTSHLNSAVDGFDSEFCKALRAYAGCTQRTSKACRGNLVYNSAVLGISDLMSQRNCSKDGPTSSTNPEVTHGTKHHHHHH | – | > 150 | –
6 | N-terminal domain of human RGMB (RGMBND, Gln53–His136) (domain or fragment, N-linked glycan on Asn120 (cut down to one N-acetylglucosamine for crystallization; kept fully glycosylated for binding assays); methylated for crystal form 2) ETGQCRIQKCTTDFVSLTSHLNSAVDGFDSEFCKALRAYAGCTQRTSKACRGNLVYHSAVLGISDLMSQRNCSKDGPTSSTNPEVTHGTKHHHHHH | 2.7 | – | stoichiometry N [3]: 2 RGMBND per GDF5 dimer (2:2:2 by chains); stoichiometry N [4]: 2 RGMB per disulfide-linked GDF5 dimer (2:2 by chains); Kd [5]: 20.1 µM
7 | extracellular domain of human RGMB (RGMBECD, Gln53–Ser411) (domain or fragment, Asn-linked glycans cut down to one N-acetylglucosamine for crystallization) ETGQCRIQKCTTDFVSLTSHLNSAVDGFDSEFCKALRAYAGCTQRTSKACRGNLVYHSAVLGISDLMSQRNCSKDGPTSSTNPEVTHDPCNYHSHAGAREHRRGDQNPPSYLFCGLFGDPHLRTFKDNFQTCKVEGAWPLIDNNYLSVQVTNVPVVPGSSATATNKITIIFKAHHGCTDQKVYQAVTDDLPAAFVDGTTSGGDSDAKSLRIVERESGHYVEMHARYIGTTVFVRQVGRYLTLAIRMPEDLAMSYEESQDLQLCVNGCPLSERIDDGQGQVSAILGHSLPRTSLVQAWPGYTLETANTQCHEKMPVKDIYFQSCVFDLLTTGDANFTAAAHSALEDVEALHPRKERWHIFPSSGTKHHHHHH | 8.8 | – | GDF5 (30 nM) BMP-responsive luciferase reporter in LLC-PK1 cells expressing full-length membrane-anchored RGMB [6]: ~3 fold
8 | RGMBND Gly101Arg (domain or fragment) QCRIQKCTTDFVSLTSHLNSAVDGFDSEFCKALRAYAGCTQRTSKACRRNLVYHSAVLGISDLMSQRNCSKDGPTSSTNPEVTH | > 150 | – | –
9 | soluble RGMC extracellular domain (RGMCECD) for the ProteOn SPR studies (domain or fragment, human, UniProt Q6ZVN8 36-400, looked up) QCKILRCNAEYVSSTLSLRGGGSSGALRGGGGGGRGGGVGSGGLCRALRSYALCTRRTARTCRGDLAFHSAVHGIEDLMIQHNCSRQGPTAPPPPRGPALPGAGSGLPAPDPCDYEGRFSRLHGRPPGFLHCASFGDPHVRSFHHHFHTCRVQGAWPLLDNDFLFVQATSSPMALGANATATRKLTIIFKNMQECIDQKVYQAEVDNLPVAFEDGSINGGDRPGGSSLSIQTANPGNHVEIQAAYIGTTIIIRQTAGQLSFSIKVAEDVAMAFSAEQDLQLCVGGCPPSQRLSRSERNRRGAITIDTARRLCKEGLPVEDAYFHSCVFDVLISGDPNFTVAAQAALEDARAFLPDLEKLHLFPSD | – | – | BMP2 (3 nM) BMP-responsive luciferase reporter in LLC-PK1 cells expressing full-length membrane-anchored RGMC [7]: ~3 fold
10 | N-terminal domain of human RGMA (RGMAND, Ser46–Ser139) (domain or fragment, Asn-linked glycans cut down to one N-acetylglucosamine for crystallization; kept fully glycosylated for binding assays, Glu-Thr-Gly from the pHLsec vector, after the N-terminal secretion signal; human RGMA, N-terminal domain, residues Ser46–Ser139 of UniProtKB Q96B86-1; source: HEK-293T, transient transfection, secreted, purified (IMAC, SEC)) ETGSPCKILKCNSEFWSATSGSHAPASDDTPEFCAALRSYALCTRRTARTCRGDLAYHSAVHGIEDLMSQHNCSKDGPTSQPRLRTLPPAGDSQERS | 16.7 | – | –
